Reference: patent US20080248043A1 (Amgen, published 2008)
Substitutions are numbered along the chain they refer to.

B1: 3C7 (antibody, V domains shown)
VH: QVQLVESGGGVVQPGTSLRLSCAASGFTFSSYGIHWVRQAPGKGLEWVAVIWYDGSNKFYADSVKGRFTISRDNSKNTLYLQMNSLRAEDTAVYYCARDPLGYCSSTSCSYFDYWGQGTLVTVSS
VL: DIQMTQSPSSVSASVGDRVTITCRASQGISNWLAWYQQKPGKAPKLLIYAASSLQSGVPSRFSGSGSGTDFTLTIRSLQPEDFATYYCQQANNFPLTFGGGTKVEIK
B2: 6B1 (antibody, V domains shown)
VH: B1 VH with Y60H
VL: B1 VL with R76S
B3: 1B5 (antibody, V domains shown)
VH: QVQLVESGGGVVQPGRSLRLSCAASGFTFSSYGMHWVRQAPGKGLEWVAVIWYDGSNKYYADSVKGRFTISRDNSKNTLYLQMNSLRAEDTAVYYCARGDFYWFDPWGQGTLVTVSS
VL: DIQMTQSPSSLSASVGDRVTITCRASQGIRSDLGWYQQRPGKTPKRLIYAASSLQSGVPSRFSGSGSGTEFTLTISSLQPEDFATYYCQQYNSYPLTFGGGTKVEIK
B4: 5E4 (antibody, V domains shown)
VH: QVHLVQSGAEVKKPGASVKVSCKASGYTFTGYYVHWVRQAPGQGLEWMGWINPNSGGTNYAQKFQGRVTMTRDTSISTAYMELSRLRSDDTAVYFCAGGRYLDYWGQGTLVTVSS
VL: B3 VL with S31N, R39K, T43A, Q89L, L96I, G100Q, K103R, V104L
B5: 3H12 (antibody, V domains shown)
VH: QVQLQESGPGLVKPSETLSLTCTVSDGSISSFYWSWIRQPPGKGLEWIGYIYYSGSTNYNPSLKSRVTISVDTSKNQFSLKLSSVTAADTAVYYCARDYDILTGYSNYYGMDVWGQGTTVTVSS
VL: B3 VL with S31N, R39K, T43A, Q89L, Y91H, L96F, G100P, V104L, E105D
B6: 4E2 (antibody, V domains shown)
VH: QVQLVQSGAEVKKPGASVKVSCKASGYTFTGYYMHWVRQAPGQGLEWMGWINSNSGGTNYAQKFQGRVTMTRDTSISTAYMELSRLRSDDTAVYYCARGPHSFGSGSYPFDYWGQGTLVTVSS
VL: B3 VL
B7: 5A5 (antibody, V domains shown)
VH: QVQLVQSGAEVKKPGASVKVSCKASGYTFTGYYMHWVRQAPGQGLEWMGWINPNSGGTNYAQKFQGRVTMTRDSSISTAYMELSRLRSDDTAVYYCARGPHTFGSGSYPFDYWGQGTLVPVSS
VL: B3 VL with M4L
B8: 4A10 (antibody, V domains shown)
VH: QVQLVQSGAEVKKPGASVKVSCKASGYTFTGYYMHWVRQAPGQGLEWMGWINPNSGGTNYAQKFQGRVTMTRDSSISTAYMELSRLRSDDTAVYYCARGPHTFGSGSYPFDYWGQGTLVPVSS
VL: B3 VL with M4L
B9: 5D6 (antibody, V domains shown)
VH: QVQLVQSGAEVKKPGASVKVSCKASGYTFTSYGISWVRQAPGQGLEWMGWISAYNGNTNYAQKLQGRVTMTTDTSTNTAYMELRSLRSDDTAVYYCAVGRYLDYWGQGTLVTVSS
VL: B3 VL with G28D, S31N, R39K, T43A, Q89L
B10: 6C2 (antibody, V domains shown)
VH: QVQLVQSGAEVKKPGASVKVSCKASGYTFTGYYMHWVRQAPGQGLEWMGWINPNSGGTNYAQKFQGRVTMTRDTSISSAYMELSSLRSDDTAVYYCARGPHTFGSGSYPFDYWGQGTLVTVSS
VL: B3 VL with K42N
B11: 3F3 (antibody, V domains shown)
VH: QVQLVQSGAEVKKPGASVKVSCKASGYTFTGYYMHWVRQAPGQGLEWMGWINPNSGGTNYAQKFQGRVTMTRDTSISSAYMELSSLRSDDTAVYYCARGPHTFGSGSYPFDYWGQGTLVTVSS
VL: B3 VL with K42N

How the values were obtained:
S1-Ig (12-510) = S1-Ig (12-510) (SARS-CoV; human, UniProt P59594 12-510); test: ELISA, coated S1-IgG 12-510
S1-Ig (12-672) = S1-Ig (12-672) (SARS-CoV; human, UniProt P59594 12-672); test: ELISA, coated S1-IgG 12-672
S1-Ig (261-672) = S1-Ig (261-672) (SARS-CoV; human, UniProt P59594 261-672); test: ELISA, coated S1-IgG 261-672
S1-Ig (318-510) [1] = target: T1, S1-Ig (318-510) (SARS-CoV; human, UniProt P59594 318-510); test: ELISA, coated S1-IgG 318-510
S1-Ig (318-510) [2] = target: T1, S1-Ig (318-510); test: ELISA on coated S1-Ig fragment

| Binder | Reactivity S1-IgG (ELISA OD) (S1-Ig (12-510)) [OD] | Reactivity S1-IgG (ELISA OD) (S1-Ig (12-672)) [OD] | Reactivity S1-IgG (ELISA OD) (S1-Ig (261-672)) [OD] | Reactivity S1-IgG (ELISA OD) (S1-Ig (318-510) [1]) [OD] | binding result (S1-Ig (318-510) [2]) |
| --- | --- | --- | --- | --- | --- |
| B1 | 1.42 | 1.09 | 0.357 | 2.19 | – |
| B2 | 1.17 | 1.13 | 0.369 | 2.09 | – |
| B3 | 1.29 | 0.463 | 0.11 | 0.191 | no binding |
| B4 | 1.2 | 0.735 | 0.298 | 2.27 | – |
| B5 | 0.318 | 0.185 | 0.09 | 1.3 | – |
| B6 | 1.52 | 0.019 | 0.551 | 1.84 | – |
| B7 | 1.19 | 0.986 | 0.337 | 2.31 | – |
| B8 | 1.52 | 1.01 | 0.567 | 1.79 | – |
| B9 | 1.31 | 0.747 | 0.355 | 2.12 | – |
| B10 | 1.6 | 1 | 0.586 | 1.85 | – |
| B11 | 1.35 | 1.07 | 0.325 | 1.89 | – |
